# Results reported in patent US20200230115A1, “METHODS OF TREATING INFLUENZA-ASSOCIATED VIRAL PNEUMONIA” (priority 2017, published 2020).
# Entries after “also recorded” stand apart in the source; their conditions may differ.
# B1: KGF: keratinocyte growth factor, a potent pulmonary epithelial mitogen; cognate receptor FGFR2 (protein, UniProt P21781 32-194, looked up)
# Fibroblast growth factor 7: CNDMTPEQMATNVNCSSPERHTRSYDYMEGGDIRVRRLFCRTQWYLRIDKRGKVKGTQEMKNNYNIMEIRTVAVGIVAIKGVESEFYLAMNKEGKLYAKKECNEDCNFKELILENHYNTYASAKWTHNGGEMFVALNQKGIPVRGKKTKKEQKTAHFLPMAIT
# What was measured:
# Set-up in all cases: species or system DBA/2J mice
# Settings in all cases: mouse, in vivo
# IAV (WSNHAnc-Asp225Gly) [1] = test system: IAV (WSNHAnc-Asp225Gly)
# IAV (WSNHAnc-Asp225Gly) [2] = test system: IAV (WSNHAnc-Asp225Gly); remark: listed apart in the source
# IAV (WSNHAnc-Asp225Gly) [3] = test system: IAV (WSNHAnc-Asp225Gly); remark: listed apart in the source
molecule,measurement,setting,value
B1,IAV-NP staining of lung sections,IAV (WSNHAnc-Asp225Gly) [1],substantially more intense; also recorded: markedly more intense and diffuse
same,blinded semiquantitative analysis of IAV-NP staining,IAV (WSNHAnc-Asp225Gly) [1],KGF-induced increase in viral burden and acceleration of spread
same,pulmonary viral burden vs PBS/IAV controls,IAV (WSNHAnc-Asp225Gly) [2],three- to fivefold greater; also recorded: No difference in viral burden
same,KGF dose of maximal effect on IAV-induced mortality,IAV (WSNHAnc-Asp225Gly) [3],5 mg/kg
same,mortality after KGF pretreatment,IAV (WSNHAnc-Asp225Gly) [3],did not enhance mortality
same,"mortality, dose response",IAV (WSNHAnc-Asp225Gly) [3],dose-dependent acceleration of mortality
same,shortening of survival,IAV (WSNHAnc-Asp225Gly) [3],3 days
